According to patent publication US11266716B2, “Use of dermcidin in sterile inflammatory conditions” (THE FEINSTEIN INSTITUTES FOR MEDICAL RESEARCH, priority 2015, dated 2022):

How the values were obtained:
[1] = system: various types of cells; conditions: cited from earlier work
[2] = system: Murine macrophage-like RAW 264.7; test: LPS- or CIRP-induced NO release by murine macrophages (Griess reaction); type: cell-based; conditions: 16 h
Protocol: FIG. 2. Dermcidin dose-dependently attenuated LPS- and CIRP-induced NO release by murine macrophages. Murine macrophages were stimulated with LPS or CIRP alone or in the presence of recombinant dermcidin (DCD) for 16 hours, and extracellular levels of nitric oxide (NO) were determined by the Griess Reagent. *, P<0.05 versus “−control”; #, P<0.05 versus “+LPS”, or “+CIRP” alone.
Cell culture: Murine macrophage-like RAW 264.7 were obtained from the American Type Culture Collection (ATCC, Rockville, Md.), and were cultured in DMEM supplemented with 1% penicillin/streptomycin and 10% FBS. Human blood was purchased from the Long Island Blood Bank (Melville, N.Y.), and human peripheral blood mononuclear cells (HuPBMCs) were isolated by density gradient centrifugation through Ficoll (Ficoll-Paque PLUS, Pharmacia, Piscataway, N.J.) as previously described (20-22). […] Subsequently, the cell-conditioned culture media were analyzed respectively for levels of nitric oxide, and other cytokines by the Griess Reaction and Cytokine Antibodies Arrays as previously described (19, 23).
Nitric oxide (NO) assay: The levels of NO in the culture medium were determined indirectly by measuring the NO^2− production with a colorimetric assay based on the Griess reaction (21, 24). NO^2− concentrations were determined with reference to a standard curve generated with sodium nitrite at various dilutions.

[3] = system: Male C57BL/6 mice; test: Hepatic ischemia/reperfusion (I/R) injury in mice; type: in vivo
Protocol: FIG. 4A-4B. Intravenous administration of dermcidin conferred protection against hepatic ischemia/reperfusion (I/R) injury. Male C57BL/6 mice (20-25 g) were subjected to hepatic ischemia/reperfusion by temporal clamping the hepatic artery and portal vein for 60 minutes, which typically produced ischemia in 70% of the liver. At the beginning of the reperfusion, 0.2 ml saline or recombinant dermcidin solution (“DCD”, 5.0 mg/kg BW) was injected via the internal jugular vein. At 24 h after the onset of ischemia, animals were euthanized to harvest blood to measure serum levels of hepatic injury markers such as alanine aminotransferase (ALT) (4A) and aspartate aminotransferase (AST) (4B) using commercial kits.
FIG. 5. DCD monomer protects against hepatic ischemic/reperfusion injury. Representative liver histology at 24 h post the onset of reperfusion. Note a normal liver parenchyma architecture in the “Sham” control, but hepatic necrosis in the “I/R”. […] Liver injury was also assessed histologically using the Suzuki liver injury scores, and expressed as means±S.E. of 3-6 animals per group. *P<0.05 vs. sham; #P<0.05 vs. “I/R” group.
FIG. 6A-6B. DCD protects against hepatic ischemic/reperfusion-induced lung injury. 6A). Histopathological characteristics of lung injury after hepatic I/R. Representative H&E histological images of lung sections at 24 h post the onset of reperfusion. Note a normal lung architecture in the “Sham” control, and extensive lung injury and neutrophil infiltration in the “I/R” group. […] 6B). Histological Scores. Lung injury was assessed histologically using American Thoracic Society Documents' lung injury scores, and expressed as means±S.E. of 3-6 animals per group. *P<0.05 vs. sham; #P<0.05 vs. “I/R” group.
In further experiments, intravenous administration of dermcidin conferred protection against hepatic ischemia/reperfusion (I/R) injury. Male C57BL/6 mice (20-25 g) were subjected to hepatic ischemia/reperfusion by temporal clamping the hepatic artery and portal vein for 60 minutes, which typically produced ischemia in 70% of the liver. […]
A representative liver histology at 24 h post the onset of reperfusion is shown, note a normal liver parenchyma architecture in the “Sham” control, and hepatic necrosis in the “I/R”. […] Liver injury was also assessed histologically using the Suzuki liver injury scores, and expressed as means±S.E. of 3-6 animals per group. *P<0.05 vs. sham; #P<0.05 vs. “I/R” group.
DCD also protects against hepatic ischemic/reperfusion-induced lung injury. […] Lung injury was assessed histologically using American Thoracic Society Documents' lung injury scores, and expressed as means±S.E. of 3-6 animals per group. *P<0.05 vs. sham; #P<0.05 vs. “I/R” group.

[4] = system: human peripheral blood mononuclear cells (HuPBMCs); test: LPS- or HMGB1-induced cytokine/chemokine release by human monocytes (Cytokine Antibody Array); type: cell-based
Protocol: FIG. 3A-3B. Dermcidin modulated LPS- and HMGB1-induced chemokine release by human monocytes. Human peripheral mononuclear cells (huPBMCs) were stimulated with LPS (0.8 μg/ml) or HMGB1 (4.0 μg/ml) alone, or in the presence of DCD (1.0 μg/ml) for 16 hours, and extracellular levels of cytokines and chemokines were determined by Cytokine Antibody Arrays (Panel A, B). A, Representative cytokine antibody arrays. The name of the cytokines and positive controls (“Pos”, or “+Ctrl”) were labeled in the table below. B, Relative cytokine levels. The relative cytokine levels were estimated by measuring the intensity of corresponding signal, and expressed as mean±SEM [% of positive controls (“+Ctrl”) of respective arrays] of two independent experiments. *, P<0.05 versus “untreated”; #, P<0.05 versus “+LPS” or “+HMGB1” alone.
Cell culture: Murine macrophage-like RAW 264.7 were obtained from the American Type Culture Collection (ATCC, Rockville, Md.), and were cultured in DMEM supplemented with 1% penicillin/streptomycin and 10% FBS. Human blood was purchased from the Long Island Blood Bank (Melville, N.Y.), and human peripheral blood mononuclear cells (HuPBMCs) were isolated by density gradient centrifugation through Ficoll (Ficoll-Paque PLUS, Pharmacia, Piscataway, N.J.) as previously described (20-22). Adherent macrophages or HuPBMCs were gently washed with, and cultured in, DMEM before stimulation with LPS (0.4 μg/ml), CIRP (2.0 μg/ml), or HMGB1 (1.0 μg/ml) in the absence or presence of recombinant dermcidin for 16 h. Subsequently, the cell-conditioned culture media were analyzed respectively for levels of nitric oxide, and other cytokines by the Griess Reaction and Cytokine Antibodies Arrays as previously described (19, 23).
Cytokine antibody array: Human Cytokine Antibody Array C3 (Cat. No. AAH-CYT-3-4, RayBiotech Inc., Norcross, Ga., USA), which respectively detect 42 cytokines on one membrane, were used to determine cytokine levels in human monocyte-conditioned culture medium as previously described (21, 24). Briefly, the membranes were sequentially incubated with equal volumes of cell culture medium (200 al), primary biotin-conjugated antibodies, and horseradish peroxidase-conjugated streptavidin. After exposing to X-ray film, the relative signal intensity was determined using the Scion Image software.

[5] = 5.0 mg/kg BW via internal jugular vein at beginning of reperfusion, 24 h after onset of ischemia
[6] = 24 h post the onset of reperfusion
[7] = human monocyte cultures, HMGB1, DCD 1.0 μg/ml, 16 h
[8] = human monocyte cultures, LPS, DCD 1.0 μg/ml, 16 h

For “N-terminal peptide (residue 20-62): N-terminal proteolytic peptide of dermcidin, residue 20-62 (YDPEAASAPGSGNPCHEASAAQKENAGEDPGLARQAPKPRKQR; UniProt P81605 20-62, looked up, fragment)”, the “protection of cells against oxidative or hypoxic stresses” value [1] is listed as “protect various types of cells against oxidative or hypoxic stresses”.

B1: dermcidin: Recombinant human dermcidin, mature form residues 20-110 without signal peptide, N-terminal histidine tag, expressed in E. coli (protein, listed as Homo sapiens)
chain: YDPEAASAPGSGNPCHEASAAQKENAGEDPGLARQAPKPRKQRSSLLEKGLDGAKKAVGGLGKLGKDAVEDLESVGKGAVHDVKDVLDSVL
In the case of B1, the “CIRP-induced NO release” value ([2]; macrophages stimulated with CIRP) is reported as “dose-dependently and significantly attenuated”, the “LPS-induced NO release” value ([2]; macrophages stimulated with LPS) is reported as “dose-dependently and significantly attenuated” and the “serum alanine aminotransferase (ALT), hepatic injury marker” value [3, 5] is reported as “significant protection”. The “serum aspartate aminotransferase (AST), hepatic injury marker” value [3, 5] was “significant protection”, the “lung histology (H&E) after hepatic I/R” value [3, 6] was “well-preserved tissue structure” and the “immune modulating properties on dimer formation” value ([4]; dimers formed in the absence of reducing agents, in vitro, data not shown) was “remained unaltered”. For the same molecule, the TNF secretion ([4]; human monocyte cultures) was “slightly stimulated”, the “HMGB1-induced release of GRO-α” value [4, 7] was “effectively inhibited” and the “HMGB1-induced release of MCP-3” value [4, 7] was “effectively inhibited”. For the same molecule, the “LPS-induced release of GRO-α” value [4, 8] was “effectively inhibited” and the “LPS-induced release of MCP-3” value [4, 8] was “effectively inhibited”.

B2: DCD monomer: Recombinant dermcidin 12-14 kDa monomer, seen in the presence of reducing agent DTT (protein, UniProt P81605 20-110, looked up)
Dermcidin: YDPEAASAPGSGNPCHEASAAQKENAGEDPGLARQAPKPRKQRSSLLEKGLDGAKKAVGGLGKLGKDAVEDLESVGKGAVHDVKDVLDSVL
With B2 the “liver histology after hepatic I/R” value [3, 6] was “well-preserved tissue structure”.
